B1: Recombinant human FHR-2 (rFHR-2), C-terminal 6×His (natural protein, UniProt P36980 19-270, looked up)
chain: EAMFCDFPKINHGILYDEEKYKPFSQVPTGEVFYYSCEYNFVSPSKSFWTRITCAEEGWSPTPKCLRLCFFPFVENGHSESSGQTHLEGDTVQIICNTGYRLQNNENNISCVERGWSTPPKCRSTISAEKCGPPPPIDNGDITSFLLSVYAPGSSVEYQCQNLYQLEGNNQITCRNGQWSEPPKCLDPCVISQEIMEKYNIKLKWTNQQKLYSRTGDIVEFVCKSGYHPTKSHSFRAMCQNGKLVYPSCEEK
modifications: DyLight 488 or DyLight 594, 3 to 4 labels per monomer (the labelled copies of the FRET assays; unlabelled where added in excess and in the ELISA)
notes: Complement factor H-related protein 2 (FHR-2), human; Labelled and unlabelled copies of the same construct are kept as one molecule; also called rFHR-2^488; rFHR-2^594; not shown: 6×His, C-terminal, kept

Tests used:
[1] = target: the molecule itself; experiment: FRET or BRET; monomer exchange: pre-equilibrated 488- and 594-labelled protein, then a >5 times molar excess of unlabelled rFHR added; loss of FRET signal followed; 37°C, PBS with 1 mg/mL IVIg; first-order exponential fit
[2] = target: the molecule itself; experiment: FRET or BRET; monomer exchange: equimolar DyLight 488- and 594-labelled protein mixed and followed in time; 37°C, 200 ng/mL in degassed PBS with 1 mg/mL IVIg; first-order exponential fit
[3] = target: B1; experiment: FRET or BRET; monomer exchange: pre-equilibrated 488- and 594-labelled protein, then a >5 times molar excess of unlabelled rFHR added; loss of FRET signal followed; 37°C, PBS with 1 mg/mL IVIg; first-order exponential fit; conditions: both partners purified

Row | observed rate constant k of monomer exchange [3] [s⁻¹] | Binder | observed rate constant k of monomer exchange [1] [s⁻¹] | dissociation half-life [2] [min]
1 |  | Recombinant human FHR-5 (rFHR-5), C-terminal 6×His (natural protein, UniProt Q9BXR6 19-569, looked up, DyLight 488 or DyLight 594, 3 to 4 labels per monomer (the labelled copies of the FRET assays; unlabelled where added in excess), Complement factor H-related protein 5 (FHR-5), human; Labelled and unlabelled copies of the same construct are kept as one molecule; also called rFHR-5^488; rFHR-5^594; not shown: 6×His, C-terminal, kept) EGTLCDFPKIHHGFLYDEEDYNPFSQVPTGEVFYYSCEYNFVSPSKSFWTRITCTEEGWSPTPKCLRMCSFPFVKNGHSESSGLIHLEGDTVQIICNTGYSLQNNEKNISCVERGWSTPPICSFTKGECHVPILEANVDAQPKKESYKVGDVLKFSCRKNLIRVGSDSVQCYQFGWSPNFPTCKGQVRSCGPPPQLSNGEVKEIRKEEYGHNEVVEYDCNPNFIINGPKKIQCVDGEWTTLPTCVEQVKTCGYIPELEYGYVQPSVPPYQHGVSVEVNCRNEYAMIGNNMITCINGIWTELPMCVATHQLKRCKIAGVNIKTLLKLSGKEFNHNSRIRYRCSDIFRYRHSVCINGKWNPEVDCTEKREQFCPPPPQIPNAQNMTTTVNYQDGEKVAVLCKENYLLPEAKEIVCKDGRWQSLPRCVESTAYCGPPPSINNGDTTSFPLSVYPPGSTVTYRCQSFYKLQGSVTVTCRNKQWSEPPRCLDPCVVSEENMNKNNIQLKWRNDGKLYAKTGDAVEFQCKFPHKAMISSPPFRAICQEGKFEYPICE | 0.0012 | < 30
2 |  | B1 | 0.0004 | < 30
3 | 0.00053 | Recombinant human FHR-1 (rFHR-1), CFHR1*A allotype, C-terminal 6×His (natural protein, UniProt Q03591 19-330, looked up, also called native rFHR-1; unlabeled rFHR-1; not shown: 6×His, C-terminal, kept) EATFCDFPKINHGILYDEEKYKPFSQVPTGEVFYYSCEYNFVSPSKSFWTRITCTEEGWSPTPKCLRLCFFPFVENGHSESSGQTHLEGDTVQIICNTGYRLQNNENNISCVERGWSTPPKCRSTDTSCVNPPTVQNAHILSRQMSKYPSGERVRYECRSPYEMFGDEEVMCLNGNWTEPPQCKDSTGKCGPPPPIDNGDITSFPLSVYAPASSVEYQCQNLYQLEGNKRITCRNGQWSEPPKCLHPCVISREIMENYNIALRWTAKQKLYLRTGESAEFVCKRGYRLSSRSHTLRTTCWDGKLEYPTCAKR |  | 
